Experimental data published in patent US20220315554A1, “COMPOUNDS COMPRISING A […] LIGAND AND USE THEREOF” (priority 2019, published 2022).

How the values were obtained:
[1] = target: human fibroblast activation protein (FAP) on FAP-expressing human WI-38 fibroblasts (human); assay: competition FACS, WI-38 cells, vs Cy5-labeled compound; A: pIC50 >8.0
[2] = target: T1, Recombinant human FAP (R&D systems, #3715-SE) (human)
T1 sequence: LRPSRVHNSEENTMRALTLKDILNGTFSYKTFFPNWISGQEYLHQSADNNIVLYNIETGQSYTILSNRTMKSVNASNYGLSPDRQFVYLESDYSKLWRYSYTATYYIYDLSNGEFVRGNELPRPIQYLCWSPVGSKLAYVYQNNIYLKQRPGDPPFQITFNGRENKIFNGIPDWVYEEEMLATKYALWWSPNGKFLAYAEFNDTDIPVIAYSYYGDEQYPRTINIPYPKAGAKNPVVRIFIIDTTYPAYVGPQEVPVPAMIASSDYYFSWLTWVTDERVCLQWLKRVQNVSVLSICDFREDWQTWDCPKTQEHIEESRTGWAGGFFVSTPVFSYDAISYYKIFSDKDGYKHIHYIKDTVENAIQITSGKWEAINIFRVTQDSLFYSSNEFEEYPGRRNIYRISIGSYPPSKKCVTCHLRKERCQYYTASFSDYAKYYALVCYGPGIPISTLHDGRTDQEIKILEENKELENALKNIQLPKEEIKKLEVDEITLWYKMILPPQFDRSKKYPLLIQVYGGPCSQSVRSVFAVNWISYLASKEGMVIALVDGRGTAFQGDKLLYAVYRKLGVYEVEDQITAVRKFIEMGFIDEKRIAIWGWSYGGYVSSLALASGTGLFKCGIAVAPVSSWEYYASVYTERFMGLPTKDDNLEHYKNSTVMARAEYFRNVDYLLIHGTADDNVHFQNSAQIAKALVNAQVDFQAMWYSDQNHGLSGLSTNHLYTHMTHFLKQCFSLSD

| Substance | pIC50 Category (FACS) [1] [pIC50] | pIC50 Category (Activity) [2] [pIC50] |
| --- | --- | --- |
| Hex-[Cys(3MeBn)-Pro-Pro-Thr-Glu-Phe-Cys]-Bal-OH (peptide) | > 8 | – |
| DOTA-Ttds-Met-[Cys(3MeBn)-Pro-Pro-Thr-Glu-Phe-Cys]-Asp-His-Phe-Arg-Asp-NH2 (peptide) | > 8 | > 8 |
| Hex-[Cys(tMeBn(DOTA-AET))-Pro-Pro-Thr-Gln-Phe-Cys]-Gab-OH (peptide) | > 8 | > 8 |
| Hex-[Cys(3MeBn)-Pro-Pro-Thr-Gln-Otf-Cys]-NH2 (peptide) | – | > 8 |
| Hex-[Cys(3MeBn)-Pro-Pro-Thr-Glu-Phe-Cys]-Asp-Gab-Arg-NH2 (peptide) | > 8 | > 8 |
| Hex-[Cys(3MeBn)-Pro-Pro-Ala-Glu-Phe-Cys]-NH2 (peptide) | – | < 6 |
| Hex-[Cys(tMeBn(DOTA-AET))-Pro-Pro-Thr-Gln-Phe-Cys]-Bal-OH (peptide) | > 8 | > 8 |
| Ac-Met-[Cys(3MeBn)-Pro-Pro-Thr-Glu-Phe-Cys]-Asp-His-Ala-Arg-Asp-NH2 (peptide) | > 8 | > 8 |
| Hex-[Cys(3MeBn)-Pro-Pro-Thr-Glu-Phe-Cys]-Asp-Cmp-Arg-NH2 (peptide) | > 8 | > 8 |
| Ac-Met-[Cys(3MeBn)-Pro-Pro-Thr-Glu-Phe-Cys]-Asp-His-phe-Arg-Asp-NH2 (peptide) | > 8 | > 8 |
| Ac-Met-[Cys(3MeBn)-Pro-Pro-Thr-Glu-Phe-Cys]-Asp-his-Phe-Arg-Asp-NH2 (peptide) | > 8 | > 8 |
| Hex-[Cys(3MeBn)-Pro-Pro-Thr-Glu-Phe-Cys]-Asp-His-Phe-Arg-Asp-Ttds-Lys(DOTA)-NH2 (peptide) | > 8 | > 8 |
| Ac-Met-[Cys(3MeBn)-Pro-Pro-Thr-Glu-Phe-Cys]-Asp-His-Amf-Arg-Asp-NH2 (peptide) | > 8 | > 8 |
| Hex-[Cys(3MeBn)-Pro-Pro-Thr-Gln-Phe-Cys]-Bhk(DOTA)-OH (peptide) | > 8 | > 8 |
| Hex-[Cys(tMeBn(DOTA-AET))-Pro-Pro-Thr-Gln-Otf-Cys]-OH (peptide) | > 8 | > 8 |
| Hex-[Cys(3MeBn)-Pro-Pro-Thr-Glu-Phe-Cys]-Pamb-Arg-NH2 (peptide) | – | > 8 |
| Ac-Met-[Cys(3MeBn)-Pro-Pro-Thr-Glu-Phe-Cys]-Asp-Ala-Phe-Arg-Asp-NH2 (peptide) | > 8 | – |
| Hex-[Cys(tMeBn(DOTA-AET))-Pro-Pro-Thr-Gln-Phe-AET] (peptide) | > 8 | > 8 |
| Hex-[Cys(tMeBn(DOTA-AET))-Pro-Pro-Thr-Gln-Phe-Cys]-Nmg-OH (peptide) | > 8 | > 8 |
| Ac-Met-[Cys(3MeBn)-Pro-Pro-Thr-Glu-Phe-Cys]-Asp-His-Tic-Arg-Asp-NH2 (peptide) | > 8 | > 8 |
| Ac-Met-[Cys(3MeBn)-Pro-Pro-Thr-Glu-Thi-Cys]-Asp-His-Phe-Arg-Asp-NH2 (peptide) | > 8 | > 8 |
| Hex-[Cys(tMeBn(InDOTA-AET))-Pro-Pro-Thr-Gln-Phe-AET] (peptide) | > 8 | > 8 |
| Hex-[Cys(3MeBn)-Pro-Pro-Thr-Glu-Phe-Cys]-Asp-Ttds-Lys(DOTA)-NH2 (peptide) | > 8 | > 8 |
| DOTA-Ttds-Nle-[Cys(3MeBn)-Pro-Pro-Thr-Glu-Phe-Cys]-Asp-Pamb-Arg-NH2 (peptide) | > 8 | > 8 |

| Substance | pIC50 Category (FACS) [1] [pIC50] | pIC50 Category (Activity) [2] [pIC50] |
| --- | --- | --- |
| Ac-met-[Cys(3MeBn)-Pro-Pro-Thr-Glu-Phe-Cys]-Asp-His-Phe-Arg-Asp-NH2 (peptide) | > 8 | > 8 |
| Hex-[Cys(tMeBn(DOTA-AET))-Nmg-Pro-Thr-Gln-Phe-Cys]-OH (peptide) | > 8 | > 8 |
| DOTA-Ttds-Nle-[Cys(3MeBn)-Pro-Pro-Thr-Glu-Phe-Cys]-Asp-His-Phe-Arg-Asp-NH2 (peptide) | > 8 | > 8 |
| Hex-[Cys(tMeBn(DOTA-AET))-Pro-Pro-Thr-Gln-Mpa-Cys]-OH (peptide) | > 8 | > 8 |
| Hex-[Cys(3MeBn)-Pro-Pro-Thr-Glu-Phe-Cys]-Asp-His-phe-Arg-Ttds-Lys(DOTA)-NH2 (peptide) | > 8 | > 8 |
| Hex-[Cys(3MeBn)-Pro-Pro-Thr-Glu-Phe-Cys]-Asp-Pamb-Arg-NH2 (peptide) | > 8 | > 8 |
| Ac-Met-[Cys(3MeBn)-Pro-Pro-Thr-Glu-Phe-Cys]-Asp-His-Mpa-Arg-Asp-NH2 (peptide) | > 8 | > 8 |
| Ac-Met-[Cys(3MeBn)-Pro-Pro-Thr-Glu-Phe-Cys]-Asp-His-Phe-arg-Asp-NH2 (peptide) | > 8 | > 8 |
| Ac-Met-[Cys(3MeBn)-Pro-Pro-Thr-Glu-Phe-Cys]-Asp-His-Phe-Arg-NH2 (peptide) | > 8 | > 8 |
| Ac-Met-[Cys(3MeBn)-Pro-Pro-Thr-Glu-Phe-Cys]-Asp-His-Phe-Arg-Asp-NH2 (peptide) | > 8 | > 8 |
| Ac-Met-[Cys(3MeBn)-Pro-Pro-Thr-Glu-Phe-Cys]-Asp-His-Nmf-Arg-Asp-NH2 (peptide) | > 8 | > 8 |
| Ac-Met-[Cys(3MeBn)-Pro-Pro-Thr-Glu-Phe-Cys]-Asp-His-Aic-Arg-Asp-NH2 (peptide) | > 8 | > 8 |
| DOTA-Ttds-Nle-[Cys(3MeBn)-Pro-Pro-Thr-Gln-Phe-Cys]-Asp-NH2 (peptide) | > 8 | > 8 |
| Ac-Met-[Cys(3MeBn)-Pro-Pro-Thr-Glu-Phe-Cys]-Asp-His-Phe-Arg-Ala-NH2 (peptide) | > 8 | > 8 |
| Hex-[Cys(3MeBn)-Pro-Pro-Thr-Glu-Phe-Cys]-Asp-Mamb-Arg-NH2 (peptide) | > 8 | > 8 |
| Hex-[Cys(3MeBn)-Pro-Pro-Thr-Ala-Phe-Cys]-NH2 (peptide) | – | < 6 |
| Hex-[Cys(tMeBn(DOTA-AET))-Pro-Pro-Thr-Gln-1Ni-Cys]-OH (peptide) | > 8 | > 8 |
| Hex-[Cys(tMeBn(DOTA-AET))-Pro-Hyp-Thr-Gln-Phe-Cys]-OH (peptide) | > 8 | > 8 |
| H-met-[Cys(3MeBn)-Pro-Pro-Thr-Glu-Phe-Cys]-Asp-His-Phe-Arg-Asp-NH2 (peptide) | > 8 | > 8 |
| Hex-[Cys(3MeBn)-Pro-Pro-Thr-Glu-Phe-Cys]-Asp-His-Ppa-arg-Ttds-Lys(DOTA)-NH2 (peptide) | > 8 | > 8 |
| DOTA-Ttds-Nle-[Cys(3MeBn)-Pro-Pro-Thr-Gln-Phe-Cys]-Bal-OH (peptide) | > 8 | > 8 |
| Hex-[Cys(3MeBn)-Pro-Pro-Thr-Glu-Phe-Cys]-Asp-His-Nmf-Arg-Ttds-Lys(DOTA)-NH2 (peptide) | > 8 | > 8 |
| DOTA-Ttds-Nle-[Cys(3MeBn)-Pro-Pro-Thr-Glu-Phe-Cys]-Asp-NH2 (peptide) | – | > 8 |
